In patent US20090136506A1, “Conserved Membrane Activator of Calcineurin (CMAC), a Novel Therapeutic Protein and Target” (priority 2005, published 2009):

B1: cMAC BL6: shDNA construct in pLKO.1 lentiviral vector, target sequence actagaatgttgacctcga (SEQ ID NO: 117) (nucleic acid)
sense: CCGGACTAGAATGTTGACCTCGATTCAAGAGATCGAGGTCAACATTCTAGTTTTTT
antisense: AATTAAAAAACTAGAATGTTGACCTCGATCTCTTGAATCGAGGTCAACATTCTAGT
B2: cMAC MB4: shDNA construct in pLKO.1 lentiviral vector, target sequence ccttgggcuggcactcttatt (SEQ ID NO: 129) (nucleic acid)
sense: CCGGCCTTGGGCUGGCACTCTTATTCAAGAGATAAGAGTGCCAGCCCAAGGTTTTT
antisense: AATTAAAAACCTTGGGCTGGCACTCTTATCTCTTGAATAAGAGTGCCAGCCCAAGG
B3: cMAC BL4: shDNA construct in pLKO.1 lentiviral vector, target sequence ggttatctgttgcccaaga (SEQ ID NO: 111) (nucleic acid)
sense: CCGGGGTTATCTGTTGCCCAAGATTCAAGAGATCTTGGGCAACAGATAACCTTTTT
antisense: AATTAAAAAGGTTATCTGTTGCCCAAGATCTCTTGAATCTTGGGCAACAGATAACC
B4: cMAC BL2: shDNA construct in pLKO.1 lentiviral vector, target sequence gcctttgttagatctatca (SEQ ID NO: 105) (nucleic acid)
sense: CCGGGCCTTTGTTAGATCTATCATTCAAGAGATGATAGATCTAACAAAGGCTTTTT
antisense: AATTAAAAAGCCTTTGTTAGATCTATCATCTCTTGAATGATAGATCTAACAAAGGC
B5: cMAC BL8: shDNA construct in pLKO.1 lentiviral vector, target sequence gtcaggtgccacatgagaa (SEQ ID NO: 123) (nucleic acid)
sense: CCGGGTCAGGTGCCACATGAGAATTCAAGAGATTCTCATGTGGCACCTGACTTTTT
antisense: AATTAAAAAGTCAGGTGCCACATGAGAATCTCTTGAATTCTCATGTGGCACCTGAC
B6: cMAC BL7: shDNA construct in pLKO.1 lentiviral vector, target sequence ccgggtttccctattccaa (SEQ ID NO: 120) (nucleic acid)
sense: CCGGCCGGGTTTCCCTATTCCAATTCAAGAGATTGGAATAGGGAAACCCGGTTTTT
antisense: AATTAAAAACCGGGTTTCCCTATTCCAATCTCTTGAATTGGAATAGGGAAACCCGG
B7: cMAC BL9: shDNA construct in pLKO.1 lentiviral vector, target sequence caggaatgtcctccaacca (SEQ ID NO: 126) (nucleic acid)
sense: CCGGCAGGAATGTCCTCCAACCATTCAAGAGATGGTTGGAGGACATTCCTGTTTTT
antisense: AATTAAAAACAGGAATGTCCTCCAACCATCTCTTGAATGGTTGGAGGACATTCCTG
B8: cMAC BL3: shDNA construct in pLKO.1 lentiviral vector, target sequence catctttgttggcctacga (SEQ ID NO: 108) (nucleic acid)
sense: CCGGCATCTTTGTTGGCCTACGATTCAAGAGATCGTAGGCCAACAAAGATGTTTTT
antisense: AATTAAAAACATCTTTGTTGGCCTACGATCTCTTGAATCGTAGGCCAACAAAGATG
B9: CD29 shDNA construct: negative control shDNA construct targeting CD29, target sequence ggtagaaagtcgggacaaa (SEQ ID NO: 132) (nucleic acid)
sense: CCGGGGTAGAAAGTCGGGACAAATTCAAGAGATTTGTCCCGACTTTCTACCTTTTT
antisense: AATTAAAAAGGTAGAAAGTCGGGACAAATCTCTTGAATTTGTCCCGACTTTCTACC
B10: cMAC BL5: shDNA construct in pLKO.1 lentiviral vector, target sequence gatttaagcctccctaaga (SEQ ID NO: 114) (nucleic acid)
sense: CCGGGATTTAAGCCTCCCTAAGATTCAAGAGATCTTAGGGAGGCTTAAATCTTTTT
antisense: AATTAAAAAGATTTAAGCCTCCCTAAGATCTCTTGAATCTTAGGGAGGCTTAAATC

How the values were obtained:
Format in all cases: cell-based
NFAT-1 = NFAT-1 translocation in Jurkat cells; details: PMA alone
Procedure: (§1) Fixing and staining Jurkat cells, NFAT translocation assay: Following treatment Jurkat cells were attached to 96 well plates using the Becton Dickinson Cell-Tak cell adhesive. The suspension cells were centrifuged (800×G) for 5 min onto precoated plates (as per manufacturer's instruction). The attached cells were permeabilized in 3.7% formaldehyde, 0.5% Triton X100 and washed twice with wash buffer (0.5% Triton X100 in PBS) and blocked with 2% BSA, 0.1% Triton X100 in PBS. The cells were incubated in primary antibodies NFAT-1 (Cellomics K01-0011-1 diluted 1:100) and NFAT-2 (Affinity Bioreagents MA3-024 diluted 1:250) in blocking buffer for 1 hour at room temperature. Cells were washed twice with wash buffer and incubated with secondary goat anti-mouse IgG conjugated to Alexa Fluor 488 GαM (Cellomics K01-0011-1 reagents antibody diluted 1:2000, and Hoechst dye 1:2000) in blocking buffer. Cells were washed once with PBS and imaged. […]
(§2) The effect of cMAC on the nuclear translocation of the transcription factor NFAT and its dependence on calcineurin was also examined. […] While NFAT-1 and NFAT-2 were detected in the cytoplasm of control virus infected cells, both isoforms of NFAT were localized primarily in the nucleus in a large proportion of cMAC transduced cells. […]

NFAT-2 = NFAT-2 translocation in Jurkat cells; details: PMA alone
Procedure: as §1, §2

IL-2 [1] = experiment: Jurkat T-cell activation, IL-2 protein (ELISA); details: Jurkat cells, PMA alone
Procedure: (§3) Transduction and sensitization of Jurkat cells: Jurkat cells were maintained in RPMI 1640 (GIBCO 21870-076) 10% FC1 Fetal clone1 (Hyclone), 1% Pen/Strep, 1% Glutamax1, 0.1% beta mercaptoethanol. Prior to transduction the cells were switched to transduction media which contains: RPMI 1640 (above) fortified with 2.25 g glucose 1% antibiotic/antimycotic, 1% 1M Hepes (Gibco), 1% 100 mM sodium pyruvate, 10 ml 7.5% Sodium Bicarbonate 10% Fetal Clone serum 1. Cells were seeded 5×104 in transduction media combined with virus (volume in legend) and 4 ug/ml polybrene final concentration and centrifuged at ˜800×g for 3 hrs. For activation of ICOS and IL-2 expression experiments cells were transduced with 50 μl of retroviral supernatant (QL-GW-Final-Kan) and 48 hours post transduction the media was fortified with PMA (phorbol 12-myristate 13-acetate) 10 ng/ml and 24 hours after addition the cells or media were removed for ICOS or IL-2 measurements. […]
(§4) Analysis of ICOS surface marker and IL-2 protein expression: 1.5 uL of ICOS-PE (BD-Parmingen 557802) was combined with ˜1×10^6 Jurkat cells and incubated on ice for 30 min. Cells were centrifuged ˜500×g 5 min and washed 2×PBS and the mean channel flourescence determined using flow cytometry (BD FACSCaliber). IL-2 levels were measured using the QuantiGlo IL-2 Elisa kit (R&D Systems).
(§5) We assessed the role of TRPV6 and cMAC in a T-cell activation screen. […]

ICOS = experiment: Jurkat T-cell activation, ICOS surface marker expression; details: Jurkat cells, PMA alone
Procedure: as §3, §4, §5

[2] = tested on: cMAC mediated translocation of TORC1-eGFP; experiment: TORC1-eGFP translocation in HeLa:TORC1-eGFP cells transduced with human cMAC; details: EGTA in the medium; reversed by excess calcium (data not shown)
IL-2 [3] = experiment: IL-2 production of TCR/CD28 activated Jurkat T-cells after viral shDNA transduction; details: TCR/CD28 activated 6 days post transduction; for Average IL-2 % inhibition: pLKO.1 shDNA, puromycin selected, IL-2 normalized to viable cells
Procedure: as §4
Jurkat cell activation for shDNA inhibition studies: To assess shDNA efficacy, Jurkat cells (15000) were transduced with 10 μL LKO virus as described and 24 hours post transduction the media was fortified with puromycin (see below). Six days post transduction half the cells were activated with antibodies targeting TCR and CD28 receptors bound to a 96 well plate surface and incubated overnight and the media was collected for IL-2 determination. The remaining cells were used to determine the fraction of viable cells in each well using the Cell Titer-Glo assay (see below).
The activation plates were prepared by coating goat anti-mouse IgG, Fcγ fragment specific antibody (Jackson ImmunoResearch Laboratories) 55 μl per well at a final concentration of 10 μg/ml in PBS. The plates were incubated 3 hours at room temperature. Excess IgG was removed and plates were blotted. Plates were blocked with 300 μL 2% BSA/PBS (BSA, Fraction V lyophilizate, Roche) and incubated for 2 hours at room temperature. The plates were washed 3 times with PBS and stimulating antibodies anti-TCR 0.01 ug/ml (BD Biosciences 347770 clone WT31) and anti-CD28 0.3 ug/ml (BD Pharmingen 555725) in 2% BSA/PBS final volume 50 μL/well. Plates were incubated overnight and washed 3 times with PBS prior to addition of cells for activation.
(§6) Puromycin selection of shDNA transduced Jurkat cells and normalization for cell survival: The LKO viral vector used in this study contains a puromycin selection marker. Jurkat cells infected with shDNA constructs (LKO.1) were put under puromycin selection 24 hrs post infection by addition of puromycin (2 μg/ml) and maintained for the duration of the experiment (6 days post infection, 3 days for mRNA quantitation). To account for differences in cell number after puromycin selection (possibly due to variations in viral titer), we adopted a cellular ATP assay which is proportional to cell number (Cell Titer-Glo Luminescent Assay Kit, Promega). The assay was performed as per the manufacturer's instruction. A standard curve was generated for each cell type to determine linearity for the assay. The IL-2 concentrations were normalized to cell number by dividing the calculated IL-2 concentration by the rLU values for the cell titer-glo assay, which is equivalent to IL-2 expression/cell number. The mRNA expression levels were determined 3 days post infection.
To assess whether cMAC was essential for T-cell activation, we designed several shDNA constructs targeting cMAC. In these experiments Jurkat T-cells were transduced with viral constructs targeting cMAC or another unrelated gene. 6 days post transduction, the cells were activated with TCR/CD28 antibodies and the level of cMAC mRNA and IL-2 secreted into the media was measured. […] FIG. 10.

cMAC mRNA = cMAC mRNA knockdown in shDNA transduced Jurkat cells; details: for Average cMAC mRNA % Inhib.: 3 days post infection (2 days post puromycin selection)
Procedure: as §6
Determination of mRNA knockdown for cMAC: Jurkat mRNA expression levels were determined 3 days post infection (2 days post puromycin selection).
To determine the specificity of the shDNA construct, the reduction of cMAC mRNA was measured for each construct (Table 8) and compared to the inhibition of IL-2 observed. The pGL3-Luc and CD29 shDNA constructs served as negative controls. […] In those instances it may be that the shDNA is causing decreases in the expression of cMAC protein through microRNA effects. Thus, it appears that with the exception of 2 constructs (BL6 and BL8) the phenotypically active IL-2 constructs correlate with reduced cMAC mRNA levels.

CD29 mRNA = CD29 mRNA knockdown by shDNA construct

Molecule	Average IL-2 % inhibition (IL-2 [3]) [%]	Average cMAC mRNA % Inhib. (cMAC mRNA) [%]	further results
CCCCCCCCCCCCCC(=O)O[C@@H]1[C@@H](C)[C@@]2(O)[C@@H](C=C(CO)C[C@]3(O)C(=O)C(C)=C[C@@H]23)[C@@H]2C(C)(C)[C@]12OC(C)=O [PMA, phorbol 12-myristate 13-acetate]	–	–	effect on NFAT-1 translocation (NFAT-1): no effect; effect on NFAT-2 translocation (NFAT-2): no effect; upregulation of IL-2 (IL-2 [1]): did not upregulate; upregulation of ICOS expression levels (ICOS): did not upregulate
O=C(O)CN(CCOCCOCCN(CC(=O)O)CC(=O)O)CC(=O)O [EGTA]	–	–	effect on cMAC induced nuclear TORC1 translocation [2]: blocked
B1	−9.34	35.8	IL-2 reduction (IL-2 [3]): without any IL-2 reduction; Average cMAC mRNA % Inhib. (cMAC mRNA; listed as BL6): 36%
B2	78.9	65.9	–
B3	65.7	56.2	–
B4	75.5	72.6	–
B5	8.03	70.1	IL-2 reduction (IL-2 [3]): without any IL-2 reduction; Average cMAC mRNA % Inhib. (cMAC mRNA; listed as BL8): 70%
B6	40.8	66.4	–
B7	37.8	54.8	–
B8	52.1	30.1	–
B9	–	–	effect on cMAC message (cMAC mRNA): no effect; reduction of CD29 mRNA (CD29 mRNA): potently reduced CD29 mRNA
B10	72.2	67.0	–
